Measured values as given in patent US20080090770A1, “Modulation of Muc1 Mediated Signal Transduction” (priority 2003, published 2008).

Target: GST-RIM2 (KIAA0751) PDZ domain 1 (human)
Test: modified ELISA, plated GST-RIM2 PDZ domain, biotinylated peptide 0.001-10 µM, curve fit; Relative EC50

Work on YGRKKRRQRRRARGRRETWV (modifications not checked) [… (SEQ ID NO: 170)] yielded an EC50 of less than 10 nM.
